{
  "source": "paper PMC6529630",
  "about": "(mBio, 2019)",
  "key": {"[1]": {"target": "T1, GlnA4 (gamma-glutamylethanolamide synthetase) (Streptomyces coelicolor, UniProt O88070)", "T1 construct": "His-GlnA4", "T1 sequence (O88070 1-462)": "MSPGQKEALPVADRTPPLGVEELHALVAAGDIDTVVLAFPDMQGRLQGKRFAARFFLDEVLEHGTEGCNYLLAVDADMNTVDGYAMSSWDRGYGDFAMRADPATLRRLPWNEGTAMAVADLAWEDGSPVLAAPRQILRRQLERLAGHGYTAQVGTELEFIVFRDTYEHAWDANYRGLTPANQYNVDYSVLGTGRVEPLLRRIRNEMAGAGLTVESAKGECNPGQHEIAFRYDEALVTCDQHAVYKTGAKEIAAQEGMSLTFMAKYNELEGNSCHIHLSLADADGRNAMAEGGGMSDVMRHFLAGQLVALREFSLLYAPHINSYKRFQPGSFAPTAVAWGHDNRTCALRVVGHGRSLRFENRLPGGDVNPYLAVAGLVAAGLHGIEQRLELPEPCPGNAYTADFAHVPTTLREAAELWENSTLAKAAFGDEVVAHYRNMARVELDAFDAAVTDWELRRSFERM", "assay": "Pi-release inhibition assay with purified His-GlnA4, Ki from IC50 (Cheng-Prusoff); weak", "format": "biochemical"}, "[2]": {"target": "T1, GlnA4 (gamma-glutamylethanolamide synthetase)", "assay": "HPLC/ESI-MS detection of reaction product of purified His-GlnA4", "format": "biochemical"}, "[3]": {"substrate": "Nc1ncnc2c1ncn2[C@@H]1O[C@H](COP(=O)(O)OP(=O)(O)OP(=O)(O)O)[C@@H](O)[C@H]1O", "assay": "Pi-release enzyme kinetics with purified His-GlnA4", "format": "biochemical, Streptomyces coelicolor", "details": "Mg2+ (MgCl2)"}, "purified protein [4]": {"substrate": "NCCO", "assay": "purified protein", "details": "ATP, Mg2+ (MgCl2)"}, "purified protein [5]": {"substrate": "N[C@@H](CCC(=O)O)C(=O)O", "assay": "purified protein", "details": "ATP, Mg2+ (MgCl2)"}},
  "data": [
    {"molecule": "CS(=N)(=O)CC[C@H](N)C(=O)O", "note": "(some centres unmarked) [methionine sulfoximine]", "values": [
      {"measurement": "Ki", "setting": "[1]", "result": "~11", "unit": "mM"}
    ]},
    {"molecule": "N[C@@H](CCC(=O)NCCO)C(=O)O", "note": "[gamma-glutamylethanolamide]", "values": [
      {"measurement": "HPLC/ESI-MS detection of reaction product of purified His-GlnA4", "setting": "[2]", "result": "GlnA4 is a functional gamma-glutamylethanolamide synthetase that uses glutamate and ethanolamine as substrates to generate gamma-glutamylethanolamide"}
    ]},
    {"molecule": "GlnA4 (gamma-glutamylethanolamide synthetase) (Streptomyces coelicolor A3(2)) (protein, His-GlnA4) MSPGQKEALPVADRTPPLGVEELHALVAAGDIDTVVLAFPDMQGRLQGKRFAARFFLDEVLEHGTEGCNYLLAVDADMNTVDGYAMSSWDRGYGDFAMRADPATLRRLPWNEGTAMAVADLAWEDGSPVLAAPRQILRRQLERLAGHGYTAQVGTELEFIVFRDTYEHAWDANYRGLTPANQYNVDYSVLGTGRVEPLLRRIRNEMAGAGLTVESAKGECNPGQHEIAFRYDEALVTCDQHAVYKTGAKEIAAQEGMSLTFMAKYNELEGNSCHIHLSLADADGRNAMAEGGGMSDVMRHFLAGQLVALREFSLLYAPHINSYKRFQPGSFAPTAVAWGHDNRTCALRVVGHGRSLRFENRLPGGDVNPYLAVAGLVAAGLHGIEQRLELPEPCPGNAYTADFAHVPTTLREAAELWENSTLAKAAFGDEVVAHYRNMARVELDAFDAAVTDWELRRSFERM", "values": [
      {"measurement": "Km", "setting": "[3]", "result": 2500, "unit": "µM"},
      {"measurement": "Km", "setting": "purified protein [4]", "result": 470, "unit": "µM"},
      {"measurement": "Km", "setting": "purified protein [5]", "result": 85410, "unit": "µM"}
    ]}
  ]
}
